{"source": "patent US5888763A", "about": "“Peptides specific for the first Crk-SH3 domain” (The Rockefeller University, priority 1994, dated 1999)", "molecules": {"B1": {"name": "C3G CB-region: C3G region containing all four CB-sequences expressed as 35S-labeled gst-fusion protein (protein)", "chain": "NSPPPALPPKKRQSAPSPTRVAVVAPMSRATSGSSLPVGINRQDFDVDCYAQRRLSGGSHSYGGESPRLSPCSSIGKLSKSDEQLSSLDRDSGQCSRNTSCETLDHYDPDYEFLQQDLSNADQIPQQTAWNLSPLPESLGESGSPFLGPPFQLPLGGHPQPDGPLAPGQQTDTPPALPKKKRRSAASQTADGSGCRVSYERHPSQYDNISGEDLQSTAPIPSVPYAPFAAILPFQHGGSSAPVEFVGDFTAPESTGDPEKPPPLPEKKQKHMLAYMQLLEDYSEPQPSMFYQTPQNEHIYQQKMKLLMEVYGFSDSFSGVDSVQELAPPPALPPAQRQLEPPAGKDGHPRDPSAVSVVPGKDSRDGSERAPKDP"}}, "experiment_in_all_cases": "SH3 blot assay with 35S-labeled gst-C3G CB-region", "assay_type_in_all_cases": "binding", "key": {"PI3Kp85-a-SH3 domain": {"biological_target": "T1, PI3Kp85-a-SH3 domain (Homo sapiens, UniProt P27986)", "T1 construct": "The PI3Kp85-a-SH3 domain was a gift of L. Cantley", "T1 sequence (P27986 3-79 limits assumed)": "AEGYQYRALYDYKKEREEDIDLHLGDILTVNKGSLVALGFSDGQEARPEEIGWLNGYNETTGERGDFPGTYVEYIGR", "description": "(§1) SH3 Blot Assay. […] of gst or equimolar amounts of SH3-fusion proteins were subjected to SDS-PAGE, electroblotted and incubated with […] (70,000 dpm/ml) ^35 S-labeled gst-C3G CB region as described (Feller et al., supra). Filters were exposed over night."}, "CrkSH3(N) domain": {"biological_target": "T2, CrkSH3(N) domain (Mus musculus, UniProt Q64010)", "T2 construct": "probed with 1-2 μg/ml ^35 S-labeled gst-fusion CrkSH3(1) domain; made in house; host or cells: bacteria", "T2 sequence (Q64010 132-192 limits assumed)": "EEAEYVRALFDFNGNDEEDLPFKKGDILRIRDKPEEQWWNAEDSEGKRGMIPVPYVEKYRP", "description": "as §1"}, "[1]": {"test_system": "Grb2, the individual Grb2SH3 domains", "description": "as §1"}}}
{"molecule": "B1", "values": [{"measurement": "binding to PI3Kp85-a-SH3 domain", "setting": "PI3Kp85-a-SH3 domain", "value": "only bound weakly"}, {"measurement": "binding to gst-fusion constructs containing the CrkSH3(N) domain", "setting": "CrkSH3(N) domain", "value": "bound strongly"}, {"measurement": "binding to Grb2 and the individual Grb2SH3 domains", "setting": "[1]", "value": "only bound weakly"}]}
